Earlier results as cited in patent US20080031874A1, “Treatment of endotoxemia using endotoxin neutralizing agents” (priority 2006, published 2008).

B1: LBP: glycoprotein present in serum that recognizes the lipid A region of LPS (protein, UniProt P18428 26-481, looked up)
Lipopolysaccharide-binding …: ANPGLVARITDKGLQYAAQEGLLALQSELLRITLPDFTGDLRIPHVGRGRYEFHSLNIHSCELLHSALRPVPGQGLSLSISDSSIRVQGRWKVRKSFFKLQGSFDVSVKGISISVNLLLGSESSGRPTVTASSCSSDIADVEVDMSGDLGWLLNLFHNQIESKFQKVLESRICEMIQKSVSSDLQPYLQTLPVTTEIDSFADIDYSLVEAPRATAQMLEVMFKGEIFHRNHRSPVTLLAAVMSLPEEHNKMVYFAISDYVFNTASLVYHEEGYLNFSITDDMIPPDSNIRLTTKSFRPFVPRLARLYPNMNLELQGSVPSAPLLNFSPGNLSVDPYMEIDAFVLLPSSSKEPVFRLSVATNVSATLTFNTSKITGFLKPGKVKVELKESKVGLFNAELLEALLNYYILNTFYPKFNDKLAEGFPLPLLKRVQLYDLGLQIHKDFLFLGANVQYMRV
- complexes with rough and smooth form LPS: high affinity, 1:1 stoichiometric complexes
- direct cytotoxicity for gram-negative bacteria (gram-negative bacteria): not directly cytotoxic
